Measured values taken from PMC8190868.

Experiments:
[1] = molecular target: A. fulgidus humanized ferritin (chimeric ferritin: Archaeoglobus fulgidus ferritin with a grafted surface loop of human H ferritin) (Archaeoglobus fulgidus); test: SEC; HP-SEC, no MgCl2; open HumFt 5 mg/mL (10 uM 24-mer) added to G3, G4 or G5 PAMAM at HumFt:PAMAM 1:10, 1:20, 1:30; mobile phase 20 mM HEPES pH 7.4; UV 220 nm; dimers to 24-mer
[2] = molecular target: A. fulgidus humanized ferritin (chimeric ferritin: Archaeoglobus fulgidus ferritin with a grafted surface loop of human H ferritin) (Archaeoglobus fulgidus); test: SEC; HP-SEC of the HumFt-PAMAM nanoparticle after up to 24 h at 37 °C in 20 mM HEPES with 50 mM MgCl2, in PBS, or in RPMI 1640 with 10% FCS
[3] = molecular target: A. fulgidus humanized ferritin (chimeric ferritin: Archaeoglobus fulgidus ferritin with a grafted surface loop of human H ferritin) (Archaeoglobus fulgidus); test: negative staining electron microscopy; TEM, HumFt 0.02 mg/mL in HEPES buffer without magnesium ions; 2% uranyl acetate or 4% ammonium molybdate
[4] = molecular target: A. fulgidus humanized ferritin (chimeric ferritin: Archaeoglobus fulgidus ferritin with a grafted surface loop of human H ferritin) (Archaeoglobus fulgidus); test: negative staining electron microscopy; TEM, HumFt 0.02 mg/mL with 50 mM Mg2+ and/or G4 PAMAM; 2% uranyl acetate or 4% ammonium molybdate
[5] = molecular target: A. fulgidus humanized ferritin (chimeric ferritin: Archaeoglobus fulgidus ferritin with a grafted surface loop of human H ferritin) (Archaeoglobus fulgidus); test: SEC; HP-SEC of the HumFt-G4 PAMAM/FITC nanoparticle; mobile phase 20 mM HEPES pH 7.4 with 50 mM MgCl2; UV 220 nm and fluorescence; dimers to 24-mer
[6] = molecular target: A. fulgidus humanized ferritin (chimeric ferritin: Archaeoglobus fulgidus ferritin with a grafted surface loop of human H ferritin) (Archaeoglobus fulgidus); test: SEC; HP-SEC of HumFt with divalent cations only (no PAMAM); dimers to 24-mer

A. fulgidus humanized ferritin (chimeric ferritin: Archaeoglobus fulgidus ferritin with a grafted surface loop of human H ferritin)
stoichiometry N [1]: 24
percent 24-mer [2]: > 95%
stoichiometry N [3]: 2
stoichiometry N [4]: 24
percent dimeric form [5]: < 2%
stoichiometry N [5]: 24
percent dimeric form [6]: 10 to 15%
